Measurements taken from patent US20140134169A1, “Methods of Treating Ovarian Cancer with Dll4 Antagonists” (Regeneron Pharmaceuticals, Inc., priority 2012, published 2014).

Key:
[1] = test system: Hey-1 transcript (Dll4-notch signaling pathway); experiment: Hey-1 transcript in Phase I patient samples (microarray); assay type: in vivo, human; settings: all samples, 0.25 and 0.5 mg/kg
Method: The pharmacodynamic effect of REGN421 on the Dll4-notch signaling pathway has been analyzed using microarray technology on the patient serum samples collected prior to as well as 24 hours following REGN421 administration.

[2] = test system: human A549 tumor cells (non-small cell lung cancer); experiment: Growth of human A549 tumors implanted in humanized Dll4 SCID mice; assay type: in vivo; settings: REGN421 2 mg/kg sc (6 mg/kg total)
Method: Tumor growth delay, TGD, was assessed as the difference in days between treated (T) versus control (C) tumors when each cohort reached a specified tumor size. The predetermined tumor size for this experiment was 600 mm^3.
Each mouse was implanted subcutaneously (sc) with 5×10^6 human A549 tumor cells (non-small cell lung cancer or “NSCLC”). […] A total of 36 mice were divided into 6 groups (n=6 per cohort). The first group was treated sc with hFc at 2 mg/kg; the second group was treated sc with REGN421 at 2 mg/kg; the third and fourth groups were treated ip with cisplatin at 2.5 and 4.5 mg/kg, respectively; the fifth group was treated sc with REGN421 at 2 mg/kg and ip with cisplatin at 2.5 mg/kg; and the sixth group was treated sc with REGN421 at 2 mg/kg and ip with cisplatin at 4.5 mg/kg. REGN421 was administered every 3-4 days starting on day 29 and mice received three doses total. Cisplatin was administered every 24 hours starting on day 29 and mice received two doses total.
To assess the effects of REGN421 and cisplatin as single agents or in combination we measured tumor size (volume), beginning three days before the initial REGN421 treatment, on the day of each agent treatment (days 29, 30, 33, 36) and thereafter every 3-4 days until tumors reached ˜600 mm^3 in size.

[3] = test system: human HCT116 tumor cells; experiment: Growth of human HCT116 tumors in humanized Dll4 SCID mice (irinotecan study); assay type: in vivo; settings: REGN421 2 mg/kg sc (6 mg/kg total)
Method: Each mouse was implanted subcutaneously (sc) with 5×10^6 human HCT116 tumor cells. […] The mice were then treated with hFc, REGN421, irinotecan or combination of REGN421 and irinotecan. A total of 30 mice were divided into 6 groups (n=5 per cohort). The first group was treated sc with hFc at 2 mg/kg; the second group was treated sc with REGN421 at 2 mg/kg; the third and fourth groups were treated ip with irinotecan at 7.5 and 25 mg/kg, respectively; the fifth group was treated sc with REGN421 at 2 mg/kg and ip with irinotecan at 7.5 mg/kg; and the sixth group was treated sc with REGN421 at 2 mg/kg and ip with irinotecan at 25 mg/kg. REGN421 was administered every 3-4 days starting on day 15 and mice received three doses total. Irinotecan was administered every 3-4 days starting on day 15 and mice received three doses total.
To assess the effects of REGN421 and irinotecan as single agents or in combination treatments, the changes in tumor size (volume) are measured, starting three days before the initial REGN421 treatment, and then on the day of each agent treatment (days 15, 19, 22) and thereafter every 3-4 days until tumors reach ˜600 mm^3 in size. In vivo tumor size is calculated using the formula (length×width^2)/2.

[4] = molecular target: human Dll4 (human, UniProt Q9NR61 27-524, limits assumed); experiment: cell-based or functional assay
[5] = test system: Hey1 gene expression in Colo205 human colorectal tumor cells; experiment: Hey1 gene expression in Colo205 tumors in humanized Dll4 SCID mice (microarray); assay type: in vivo
Method: The effect of anti-hDll4 antibody on differential gene expression in tumors was studied in humanized Dll4 SCID mice implanted with human Colo205 colorectal tumor cells. Briefly, Male and female humanized Dll4 SCID mice were subcutaneously implanted with 2×10^6 Colo205 cells per mouse. When the tumors reached ˜150 mm^3, mice (4 animals per group) were treated with a single dose of REGN421 at 0.5, 5 or 15 mg/kg, or of hFc control at 15 mg/kg. The tumors were excised at 5 hrs, 10 hrs, 24 hrs, 72 hrs and 7 days after the treatment and stored in RNA later stabilization reagent (Qiagen). Tumor RNA was purified using the RNeasy® Midi Kit (Qiagen). Tissue was homogenized in lysis buffer containing […] in a mixer mill, loaded onto the columns and unbound contaminants washed through. DNase I digestion was performed on the column and RNA was eluted in RNase-free water. Cyanine 3 (Cy3)-CTP was incorporated into amplified cRNA from 500 ng of total RNA using the Quick Amp™ RNA Amplification Kit (Agilent Technologies). Cy3-labeled cRNA from each sample was then hybridized to a custom array covering both the mouse and human transcriptome. The hybridization and wash of the arrays were performed according to the manufacture's protocol and arrays were scanned on an Agilent Microarray scanner. The data were extracted from scanned array images using the Agilent Feature Extraction Software 9.5. […]

Chain of human Dll4 (Q9NR61 27-524 limits assumed): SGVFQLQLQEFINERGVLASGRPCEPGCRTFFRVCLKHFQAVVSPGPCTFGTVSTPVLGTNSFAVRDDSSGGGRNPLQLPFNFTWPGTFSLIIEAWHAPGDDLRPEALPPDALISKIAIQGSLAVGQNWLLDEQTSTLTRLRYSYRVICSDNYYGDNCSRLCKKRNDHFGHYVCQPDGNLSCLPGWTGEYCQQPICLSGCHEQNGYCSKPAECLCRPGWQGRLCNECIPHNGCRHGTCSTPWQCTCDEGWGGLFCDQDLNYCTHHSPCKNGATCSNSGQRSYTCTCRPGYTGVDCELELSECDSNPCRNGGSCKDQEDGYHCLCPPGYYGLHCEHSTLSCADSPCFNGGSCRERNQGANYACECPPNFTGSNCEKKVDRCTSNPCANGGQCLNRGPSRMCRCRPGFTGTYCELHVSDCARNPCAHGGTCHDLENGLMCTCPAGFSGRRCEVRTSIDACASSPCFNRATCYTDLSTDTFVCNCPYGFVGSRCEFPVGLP

Hey-1 transcript Post-treatment vs. Pre-treatment ratio (patient 1, 0.25 mg/kg) [4]: 0.52 ratio | Hey-1 transcript Post-treatment vs. Pre-treatment ratio (patient 2, 0.25 mg/kg) [4]: 0.85 ratio | Hey-1 transcript Post-treatment vs. Pre-treatment ratio (patient 3, 0.25 mg/kg) [4]: 0.77 ratio | Hey-1 transcript Post-treatment vs. Pre-treatment ratio (patient 4, 0.25 mg/kg) [4]: 0.51 ratio | Hey-1 transcript Post-treatment vs. Pre-treatment ratio (patient 5, 0.25 mg/kg) [4]: 0.61 ratio | Hey-1 transcript Post-treatment vs. Pre-treatment ratio (patient 6, 0.25 mg/kg) [4]: 0.55 ratio | Hey-1 transcript Post-treatment vs. Pre-treatment ratio (patient 7, 0.25 mg/kg) [4]: 0.75 ratio | Hey-1 transcript Post-treatment vs. Pre-treatment ratio (patient 8, 0.5 mg/kg) [4]: 0.68 ratio | Hey-1 transcript Post-treatment vs. Pre-treatment ratio (patient 9, 0.5 mg/kg) [4]: 0.82 ratio
B1: REGN421 (antibody, V domains shown)
VH: QVQLVESGGGVVQPGRSLRLSCAASGFTFSSYGMHWVRQAPGKGLEWVSFLWYDGTNKNYVESVKGRFTISRDNSKNMLYLEMNSLRAEDTAVYYCARDHDFRSGYEGWFDPWGQGTLVTVSS
VL: EIVLTQSPATLSLSPGERATLSCRASQSVSSYLAWYQQKPGQAPRLLIYDASNRATGIPARFSGSGSGTDFTLTISSLEPEDFAVYYCQHRSNWPPTFGGGTKVEIK
expression of the Hey-1 gene compared to pre-treatment samples [1]: reduced | TGD [2]: 8 days | TGI (%) at Day 57 [2]: 54% | TGD [3]: 9 days | TGI(%) at Day 39 [3]: 81.3% | Hey1 mRNA levels compared to control hFc-treated mice ([5]; single dose 0.5 mg/kg (lowest dose)): No significant decrease | Hey1 mRNA levels compared to control hFc-treated mice ([5]; single dose REGN421, starting at 10 hours, most significantly at 72 hours and 7 days post-treatment): decreased
